Assay results as given in patent publication US20140134690A1, “MICROBES AND METHODS FOR PRODUCING 1-PROPANOL” (University of Georgia Research Foundation, Inc., priority 2012, published 2014).

Assays:
Assay in all cases: cells, lysate or membranes named
[1] = test system: O=C(CO)COP(=O)(O)O; assay type: biochemical, C. difficile; settings: other: substrate dihydroxyacetone phosphate 0.15-1.5 mM, crude extract, imidazole-HCl pH 7.0, 30° C.
Description: (§1) 1,2-Propanediol pathway branches from glycolysis and competes for the intermediate dihydroxyacetone phosphate, with the glycolytic pathway. […] We amplified the mgsA genes from the microorganisms: C. acetobutylicum (ATCC#824), B. subtilis 168, C. difficile R20291, E. coli MG1655, T. thermophilus HB27, K. pneumoniae MGH78578, P. fluorescens Pf-5, and R. eutropha H16 respectively. These genes were cloned and expressed in wild type E. coli BW25113 using eight plasmids pRJ1-pRJ8. Each gene was under the control of the IPTG-inducible pLlacO1 promoter. Using dihydroxyacetone-phosphate as the substrate, we successfully detected the functional expression of all mgsA genes in vitro, where the specific activities varied from 0.0052 U/mg to 0.1242 U/mg (Table 1). […] Without the over-expression of mgsA gene, we also detected the native expression of E. coli mgsA, which gave a specific activity of only 0.0008 U/mg, much lower than that of any over-expression.
(§2) Using the primers listed in Table 5, the mgsA genes were PCR amplified from the genomic DNA of C. acetobutylicum (ATCC824), B. subtilis 168, Clostridium difficile R20291, E. coli MG1655, Thermus thermophilus HB27, K. pneumoniae MGH78578, Pseudomonas fluorescens Pf-5, and Ralstonia eutropha H16 respectively. […]
(§3) The assay was carried out using a two-step procedure. […] The samples were diluted 10 times before measuring the absorbance at 550 nm.

[2] = test system: O=C(CO)COP(=O)(O)O; assay type: biochemical, E. coli; settings: other: substrate dihydroxyacetone phosphate 0.15-1.5 mM, crude extract, imidazole-HCl pH 7.0, 30° C.
Description: as §1, §2, §3

[3] = test system: CC(=O)CO; settings: other: hydroxyacetone 20-120 mM, 0.25 mM NADH, crude extract, imidazole-HCl pH 7.0, 37° C.
[4] = test system: CC(=O)C=O; settings: other: methylglyoxal 20-120 mM, 0.25 mM NADH, crude extract, imidazole-HCl pH 7.0, 37° C.
[5] = test system: O=C(CO)COP(=O)(O)O; assay type: biochemical, K. pneumoniae; settings: other: substrate dihydroxyacetone phosphate 0.15-1.5 mM, crude extract, imidazole-HCl pH 7.0, 30° C.
Description: as §1, §2, §3

Substance: Clostridium difficile R20291 methylglyoxal synthase (mgsA), wild type (Clostridioides difficile R20291)
- Km [1]: 1.439 ± 0.060 mM

Substance: E. coli MG1655 methylglyoxal synthase (mgsA), wild type (Escherichia coli K-12)
- Km [2]: 1.418 ± 0.120 mM

Substance: K. pneumoniae MGH78578 diol dehydrogenase (budC), wild type (Klebsiella pneumoniae subsp. pneumoniae MGH 78578)
- Km [3]: 1.83 ± 0.63 mM
- Km [4]: 0.78 ± 0.03 mM

Substance: Klebsiella pneumoniae MGH78578 methylglyoxal synthase (mgsA), wild type (Klebsiella pneumoniae subsp. pneumoniae MGH 78578)
- Km [5]: 2.820 ± 0.300 mM
